Assay results taken from US20190002534A1 (UNIVERSITY OF MASSACHUSETTS, published 2019).

Legend:
Assay in all cases: cell-based or functional assay
[1] = target: G glycoprotein of rabies virus street isolate CASK (rabies virus, isolate CASK (Skunk, U.S. …))
[2] = target: G glycoprotein of rabies virus street isolate TN33 (rabies virus, isolate TN33 (Lasiurus …))
[3] = target: T1, G glycoprotein of rabies virus street isolate RAC (rabies virus, isolate RAC (Raccoon, …))
[4] = target: G glycoprotein of rabies virus isolate Texas coyote 323R (rabies virus, isolate Texas coyote 323R)
[5] = target: T2, G glycoprotein of rabies virus street isolate Sonora Dog (rabies virus, isolate Sonora Dog (Dog, …))
[6] = target: G glycoprotein of rabies virus street isolate 1625 Bat (rabies virus, isolate 1625 Bat …)
[7] = target: G glycoprotein of rabies virus street isolate TN132 (rabies virus, isolate TN132 (Lasiurus …))
[8] = target: G glycoprotein of rabies virus street isolate TN410 (rabies virus, isolate TN410 (Lasiurus …))
[9] = target: T3, G glycoprotein of rabies virus street isolate PR Mong (rabies virus, isolate PR Mong …)
[10] = target: G glycoprotein of rabies virus street isolate AZ fox 2400 (rabies virus, isolate AZ fox 2400 (Fox …))
[11] = target: G glycoprotein of rabies virus street isolate TN269 (rabies virus, isolate TN269 (Lasiurus …))
[12] = target: T4, G glycoprotein of rabies virus street isolate Myotis (rabies virus, isolate Myotis (Myotis …))
[13] = target: T5, G glycoprotein of rabies virus street isolate CO Bat EF6938 (rabies virus, isolate CO Bat EF6938 …)
[14] = target: G glycoprotein of rabies virus street isolate FLBat 769 (rabies virus, isolate FLBat 769 …)
[15] = target: T6, G glycoprotein of rabies virus street isolate C1434 (rabies virus, isolate C1434 …)
[16] = target: T7, G glycoprotein of rabies virus street isolate Bat EF (rabies virus, isolate Bat EF (Eptesicus …))
[17] = target: T8, G glycoprotein of rabies virus street isolate AK fox (rabies virus, isolate AK fox (Fox, …))
[18] = target: G glycoprotein of rabies virus street isolate CABat (rabies virus, isolate CABat (Myotis …))
[19] = target: G glycoprotein of rabies virus street isolate VA399 (rabies virus, isolate VA399 (Lasiurus …))
[20] = target: G glycoprotein of rabies virus street isolate TX Fox (rabies virus, isolate TX Fox (Fox …))
[21] = target: T9, G glycoprotein of rabies virus street isolate NC SK (rabies virus, isolate NC SK (Skunk, …))
[22] = target: T10, G glycoprotein of rabies virus street isolate TX SK 4380 (rabies virus, isolate TX SK 4380 …)
[23] = target: G glycoprotein of rabies virus street isolate AZ Bat LC (rabies virus, isolate AZ Bat LC …)
[24] = target: T11, G glycoprotein of rabies virus street isolate WA Bat (rabies virus, isolate WA Bat …)
[25] = target: G glycoprotein of rabies virus street isolate VA1340 (rabies virus, isolate VA1340 (Lasiurus …))
[26] = target: T1, G glycoprotein of rabies virus street …; remark: listed apart in the source
[27] = target: T2, G glycoprotein of rabies virus street …; remark: listed apart in the source
[28] = target: T3, G glycoprotein of rabies virus street …; remark: listed apart in the source
[29] = target: T4, G glycoprotein of rabies virus street …; remark: listed apart in the source
[30] = target: T5, G glycoprotein of rabies virus street …; remark: listed apart in the source
[31] = target: T6, G glycoprotein of rabies virus street …; remark: listed apart in the source
[32] = target: T7, G glycoprotein of rabies virus street …; remark: listed apart in the source
[33] = target: T8, G glycoprotein of rabies virus street …; remark: listed apart in the source
[34] = target: T9, G glycoprotein of rabies virus street …; remark: listed apart in the source
[35] = target: T10, G glycoprotein of rabies virus street …; remark: listed apart in the source
[36] = target: T11, G glycoprotein of rabies virus street …; remark: listed apart in the source
[37] = target: G glycoprotein of rabies virus street isolate Raccoon (Florida) (rabies virus, isolate Raccoon (Florida))
[38] = target: G glycoprotein of rabies virus street isolate Eastern pipistrelle (Test B) (rabies virus, isolate Eastern …)
[39] = target: G glycoprotein of rabies virus street isolate Lasiurus cinereus (Arkansas) (Test B) (rabies virus, isolate Lasiurus cinereus …)
[40] = target: G glycoprotein of rabies virus street isolate Skunk south-central (Test B) (rabies virus, isolate Skunk …)
[41] = target: G glycoprotein of rabies virus street isolate SW E fuscus (Test B) (rabies virus, isolate SW E fuscus …)
[42] = target: G glycoprotein of rabies virus street isolate Gray fox (Test B) (rabies virus, isolate Gray fox (Fox …))
[43] = target: G glycoprotein of rabies virus street isolate Eptesicus fuscus (Nebraska) (Test B) (rabies virus, isolate Eptesicus fuscus …)
[44] = target: G glycoprotein of rabies virus street isolate Skunk (north-central) (Test B) (rabies virus, isolate Skunk …)
[45] = target: G glycoprotein of rabies virus street isolate Tadarida (Test B) (rabies virus, isolate Tadarida sp. …)

B1: anti-rabies virus human monoclonal antibody 2B10 (antibody, V domains shown)
VH: EVQLVQSGGGLVHPGGSLRLSCAGSGFTFSYFAMHWVRQAPGKGLEWVSTIGTGGGTYYADSVKGRFTISRDNAKNSLYLQMNSLRAEDMAVYYCARDNALRSFDWLFYSFDYWGQGTLVTVSS
VL: EIVLTQSPGTLSLSPGERATLSCRASQSISSSYLAWYQQKPGQAPRLLIYGASSRATGIPDRFSGSGSGTDFTLTISRLEPEDFAVYYCQRYGSSYTFGQGTKLEIK
- EC50 neutralization by RFFIT (Test A) [1]: 0.48 µg/mL
- EC50 neutralization by RFFIT (Test A) [2]: 1620 µg/mL
- EC50 neutralization by RFFIT (Test A) [3]: 0.03 µg/mL
- EC50 neutralization by RFFIT (Test A) [4]: 1.57 µg/mL
- EC50 neutralization by RFFIT (Test A) [5]: 0.006 µg/mL
- EC50 neutralization by RFFIT (Test A) [6]: 83 µg/mL
- EC50 neutralization by RFFIT (Test A) [7]: > 2400 µg/mL
- EC50 neutralization by RFFIT (Test A) [8]: 222 µg/mL
- EC50 neutralization by RFFIT (Test A) [9]: 0.006 µg/mL
- EC50 neutralization by RFFIT (Test A) [10]: 0.043 µg/mL
- EC50 neutralization by RFFIT (Test A) [11]: > 2400 µg/mL
- EC50 neutralization by RFFIT (Test A) [12]: 0.008 µg/mL
- EC50 neutralization by RFFIT (Test A) [13]: 0.01 µg/mL
- EC50 neutralization by RFFIT (Test A) [14]: > 2400 µg/mL
- EC50 neutralization by RFFIT (Test A) [15]: 0.008 µg/mL
- EC50 neutralization by RFFIT (Test A) [16]: 0.015 µg/mL
- EC50 neutralization by RFFIT (Test A) [17]: 0.004 µg/mL
- EC50 neutralization by RFFIT (Test A) [18]: 0.004 µg/mL
- EC50 neutralization by RFFIT (Test A) [19]: 864 µg/mL
- EC50 neutralization by RFFIT (Test A) [20]: 0.02 µg/mL
- EC50 neutralization by RFFIT (Test A) [21]: 0.004 µg/mL
- EC50 neutralization by RFFIT (Test A) [22]: 0.005 µg/mL
- EC50 neutralization by RFFIT (Test A) [23]: 422 µg/mL
- EC50 neutralization by RFFIT (Test A) [24]: 0.009 µg/mL
- EC50 neutralization by RFFIT (Test A) [25]: > 2400 µg/mL
- EC50 neutralization by RFFIT [26]: 0.03 µg/mL
- EC50 neutralization by RFFIT [27]: 0.006 µg/mL
- EC50 neutralization by RFFIT [28]: 0.006 µg/mL
- EC50 neutralization by RFFIT [29]: 0.008 µg/mL
- EC50 neutralization by RFFIT [30]: 0.01 µg/mL
- EC50 neutralization by RFFIT [31]: 0.008 µg/mL
- EC50 neutralization by RFFIT [32]: 0.015 µg/mL
- EC50 neutralization by RFFIT [33]: 0.004 µg/mL
- EC50 neutralization by RFFIT [34]: 0.004 µg/mL
- EC50 neutralization by RFFIT [35]: 0.005 µg/mL
- EC50 neutralization by RFFIT [36]: 0.009 µg/mL
- EC50 neutralization by RFFIT (Test B) [37]: 0.005 µg/mL
- EC50 neutralization by RFFIT (Test B) [38]: 0.033 µg/mL
- EC50 neutralization by RFFIT (Test B) [39]: 117 µg/mL
- EC50 neutralization by RFFIT (Test B) [40]: 0.002 µg/mL
- EC50 neutralization by RFFIT (Test B) [41]: 0.005 µg/mL
- EC50 neutralization by RFFIT (Test B) [42]: < 0.0002 µg/mL
- EC50 neutralization by RFFIT (Test B) [43]: 0.014 µg/mL
- EC50 neutralization by RFFIT (Test B) [44]: 0.005 µg/mL
- EC50 neutralization by RFFIT (Test B) [45]: 0.011 µg/mL

B2: anti-rabies virus human monoclonal antibody 17C7 (antibody, V domains shown)
VH: QVQLVESGGGVVQPGRSLRLSCAASGFTFSTYAMHWVRQAPGKGLEWVAVVSYDGRTKDYADSVKGRFTISRDNSKNTLYLQMNSLRTEDTAVYFCARERFSGAYFDYWGQGTLVTVSS
VL: EIVLTQSPATLSLSPGERATLSCRASQSVSSYLAWYQQKPGQAPRLLIYDASNRATGIPARFSGSGSGTDFTLTISSLEPEDFAVYSCQQRNNWPPTFGGGTKVEIK
- EC50 neutralization by RFFIT (Test A) [1]: 0.006 µg/mL
- EC50 neutralization by RFFIT (Test A) [2]: 9.11 µg/mL
- EC50 neutralization by RFFIT (Test A) [3]: 0.027 µg/mL
- EC50 neutralization by RFFIT (Test A) [4]: 0.01 µg/mL
- EC50 neutralization by RFFIT (Test A) [5]: 0.006 µg/mL
- EC50 neutralization by RFFIT (Test A) [6]: 80 µg/mL
- EC50 neutralization by RFFIT (Test A) [7]: 414 µg/mL
- EC50 neutralization by RFFIT (Test A) [8]: 8 µg/mL
- EC50 neutralization by RFFIT (Test A) [9]: 0.007 µg/mL
- EC50 neutralization by RFFIT (Test A) [10]: 0.211 µg/mL
- EC50 neutralization by RFFIT (Test A) [11]: 400 µg/mL
- EC50 neutralization by RFFIT (Test A) [12]: 0.004 µg/mL
- EC50 neutralization by RFFIT (Test A) [13]: 0.182 µg/mL
- EC50 neutralization by RFFIT (Test A) [14]: 80.2 µg/mL
- EC50 neutralization by RFFIT (Test A) [15]: 0.154 µg/mL
- EC50 neutralization by RFFIT (Test A) [16]: 0.512 µg/mL
- EC50 neutralization by RFFIT (Test A) [17]: 0.005 µg/mL
- EC50 neutralization by RFFIT (Test A) [18]: 0.006 µg/mL
- EC50 neutralization by RFFIT (Test A) [19]: 21.9 µg/mL
- EC50 neutralization by RFFIT (Test A) [20]: 0.023 µg/mL
- EC50 neutralization by RFFIT (Test A) [21]: 0.8 µg/mL
- EC50 neutralization by RFFIT (Test A) [22]: 0.006 µg/mL
- EC50 neutralization by RFFIT (Test A) [23]: 10 µg/mL
- EC50 neutralization by RFFIT (Test A) [24]: 0.87 µg/mL
- EC50 neutralization by RFFIT (Test A) [25]: 199 µg/mL
- EC50 neutralization by RFFIT [26]: 0.027 µg/mL
- EC50 neutralization by RFFIT [27]: 0.006 µg/mL
- EC50 neutralization by RFFIT [28]: 0.007 µg/mL
- EC50 neutralization by RFFIT [29]: 0.004 µg/mL
- EC50 neutralization by RFFIT [30]: 0.182 µg/mL
- EC50 neutralization by RFFIT [31]: 0.154 µg/mL
- EC50 neutralization by RFFIT [32]: 0.512 µg/mL
- EC50 neutralization by RFFIT [33]: 0.005 µg/mL
- EC50 neutralization by RFFIT [34]: 0.8 µg/mL
- EC50 neutralization by RFFIT [35]: 0.006 µg/mL
- EC50 neutralization by RFFIT [36]: 0.87 µg/mL
- EC50 neutralization by RFFIT (Test B) [37]: 1000 µg/mL
- EC50 neutralization by RFFIT (Test B) [38]: 143 µg/mL
- EC50 neutralization by RFFIT (Test B) [39]: 10.4 µg/mL
- EC50 neutralization by RFFIT (Test B) [40]: 0.0004 µg/mL
- EC50 neutralization by RFFIT (Test B) [41]: 675 µg/mL
- EC50 neutralization by RFFIT (Test B) [42]: 0.002 µg/mL
- EC50 neutralization by RFFIT (Test B) [43]: 0.002 µg/mL
- EC50 neutralization by RFFIT (Test B) [44]: 7.36 µg/mL
- EC50 neutralization by RFFIT (Test B) [45]: 1.05 µg/mL
